The record followed here is patent publication EP4810058A1 (Shanghai Henlius Biotech, Inc., dated 2026).

For one test, the target named is T1, HER2-Fc protein (human, UniProt P04626 23-652).
T1 construct: Bought reagent (Sino Biological, PA, USA, Cat. No. 10004-H02H, LC10JA1203); not shown: Fc part of the bought fusion
Description: SPR (Biacore CM5), antibody immobilized by amine coupling, HER2-Fc injected.

Test [1] addresses T2, HER2 on gastric cancer cells NCI-N87 and SNU216 (human, UniProt P04626 23-1255).
T2 construct: whole, on cells; also called CD340; erbB2
The test can be described thus: HER2 internalization assay on NCI-N87 and SNU216 cells, pHrodo dye, flow cytometry.

B1: Second anti-HER2 antibody (antibody, human IgG1, kappa, V domains shown)
VH: EVQLVESGGGLVQPGGSLRLSCAASGFTFSSYTMSWVRQAPGKGLEWVAYISAGGGSTYYPDTVKGRFTISRDNAKNSLYLQMNSLRAEDTAVYYCARHLGGTASFDYWGQGTLVTVSS
VL: DIQMTQSPSSLSASVGDRVTITCLASQTIGTWLAWYQQKPGKAPKLLIYVATSLADGVPSRFSGSGSGTDFTLTISSLQPEDFATYYCQQNAYAPWTFGQGTKVEIKR
notes: also called second antibody; hz1E11-133
On to B1, for which the binding result (in the test with HER2-Fc protein; in test [1]) was “binds” in each case.
